Assay results from patent US20200087354A1.

Target: Streptococcus pyogenes (Spy) dCas9 (Streptococcus pyogenes) (UniProt Q99ZW2)
Experiment: cell-based or functional assay

Substance	RFP fluorescence relative to a strain with no guide RNA (dCas9-based repression of a chromosomal RFP reporter in E. coli)
AcrIIA4	85%
AcrIIA2 (LMOG_03147)	25%
